Results published in patent US20130289246A1 (VANDERBILT UNIVERSITY, published 2013).

Assays:
[1] = target: T1, first-generation H1 LAH construct H1frThrST (Influenza A virus (H1)); assay: ELISA, supernate
[2] = target: T1, first-generation H1 LAH construct …; assay: ELISA, supernate; remark: listed apart in the source
[3] = target: T2, first-generation H3 LAH construct H3frThrST (Influenza A virus (H3)); assay: ELISA, supernate
[4] = target: T1, first-generation H1 LAH construct …; assay: ELISA, supernate; remark: listed apart in the source
[5] = target: T2, first-generation H3 LAH construct …; assay: ELISA, supernate; remark: listed apart in the source
[6] = target: T1, first-generation H1 LAH construct …; assay: ELISA, recombinant mAb
[7] = target: T2, first-generation H3 LAH construct …; assay: ELISA, recombinant mAb
[8] = target: T1, first-generation H1 LAH construct …; assay: ELISA, supernate; remark: listed apart in the source
[9] = target: T2, first-generation H3 LAH construct …; assay: ELISA, supernate; remark: listed apart in the source
[10] = target: T1, first-generation H1 LAH construct …; assay: ELISA, supernate; remark: listed apart in the source
[11] = target: T2, first-generation H3 LAH construct …; assay: ELISA, supernate; remark: listed apart in the source
[12] = target: T2, first-generation H3 LAH construct …; assay: ELISA, supernate; remark: listed apart in the source
[13] = target: T1, first-generation H1 LAH construct …; assay: ELISA, supernate; remark: listed apart in the source
[14] = target: T2, first-generation H3 LAH construct …; assay: ELISA, supernate; remark: listed apart in the source

Row | Binder | OD [4] [OD] | OD [5] [OD] | OD [10] [OD] | OD [11] [OD] | other results
1 | mAb 10E15 (antibody, V domains shown) VH: EVQLLESGGGVVQPGRSLRLSCAASGFTFRTYGMHWVRQAPGKGLEWVAVISHDGNLKYYGGSVKGRFTISRDNSKNALYLQMNSLRVDDTALYYCARGIGITDAFDIRGQGTMVVVS VL: QSVLTQPPSVSAAPGQKVTISCSGSSSNIGKNYVSWYQQLPGTAPKLLIYDNDKRPSGIPDRFSGSKSGTSATLGITGLQTGDEADYHCGAWDSSLNGGVFGGGTKVTVLG |  |  |  |  | binding result [1]: no binding; OD [2]: 0.068 OD; OD [3]: 0.07 OD
2 | mAb 2K11 (antibody, V domains shown) VH: EVQLVESGGGLVQPGGSLRLSCVASTFSLINYWMTWVRQAPGKGLEWVANIKQDGFEKYYVDSVKGRFTISRDNAKNSLYLQMNSLRVEDTAVYYCARQGSYADTYFYHYGMDVWGQGTTVTVS VL: QSALTQPPSVSGAPGQRVTISCTGSSSNIGAGYDAYWYQQLPGTAPKLLIYGNSNRLSGVPDRFSASKSGTSASLAITGLQAEDEADYYCQSYDSSLSIFGGGTKLTVLR | 0.079 | 0.072 |  |  | 
3 | mAb 3N6 (recombinant) (antibody, V domains shown) VH: QVQLQESGPGLVKPSETLSLTCSVSGGSINYYYWSWIRQPPGKGLECIGYISDTGRTYYNPSLRSRVTISVDTSKNQFSLNLTSMTAADTAVYYCARDPTGSRQKNAFDMWGQGTMVTVS VL: AIQMTQSPSSLSASVGDRVTITCRASQNIRSYLNWYQQKPGKAPNLLIYGTTSLESGVPSRFSGSGSGTDFTLTISSLQPEDFATYYCQQSYHTPQTFGQGTKVEIKR |  |  |  |  | OD [6]: 0.91 OD; OD [7]: 0.072 OD
4 | mAb 6J24 (antibody, V domains shown) VH: EVQLVESGGGLVQPGRSLRLSCVGSGFNFDGYAMQWVRQVPGKGLEWVSGISWHSDSTGYADSVRGRFTISRDNAKNSLYLQMDSLRPEDTAFYYCGKSIGHVGGSYRHPIDYWGQGTLVTVS VL: DIQLTQSPSSLSASVGDRVTITCRASQGITDYLAWYQQKPGTIPKLLIYAASTLQSGVPSRFSGGGYGTDFTLTISSLQPEDVATYYCQKYNSAPLTFGGGTKVEIKR |  |  |  |  | OD [8]: 0.418 OD; OD [9]: 0.94 OD
5 | mAb 18G6 (antibody, V domains shown) VH: QVQLKESGPGLVKPSETLSLTCTVSGGSISSSNYNWGWIRQPPGKGLEWIGSVYYSGSTYFNPSLKSRVTISVDTSKNQFSLKLTSVTAADTAVYYCARLIAFYYDTNGYTWGQGTLVTVS VL: NSIMTQSPFTLSASVGDKVTITCRASQSISPWLAWYQQKPGKAPKLLIYKASSLETGVPSRFSGSESGTEFTLTISGLQPDDFATYYCQQYSSFARTFGQGTKVEIKR |  |  | 0.071 | 0.071 | 
6 | mAb 11J19 (antibody, V domains shown) VH: EVQLQESGPGLVKPSETLSLSCTVSGGSITRSSYYWGWIRQPPGKGLEWIGNIYYSGTTYYNPSLKSRVTISVDTSKNQFSLKLSSVTAADTAVYYCARLYGSGLDYWGQGTLVTVS VL: DIQLTQSPSFLSASVGDRVTITCRASQGSSRYVAWYQQKPGKAPKLLILAASTLHTGVPSRFSGSGSGTEFTLTISSLQPEDFATYSCQQLNGFLLTFGGGTKVEIKR |  |  | 0.085 | 0.075 | 
7 | mAb 2O10 (antibody, V domains shown) VH: EVQLVESGGGLVQPGGSLRLSCAASGFTFNSYWMTWVRQAPGKGLEWVANINQDGSEKFFVDSVKGRFTISRDNAKTSLYLQMNSLRVEDTAVYYCAREGAPYDTYYYYYAMDVWGQGTTVTVS VL: QSVLTQPPSVSGAPGQRVTISCTGTSSNIGAGYGVHWYQQLPGAAPKLLVYGNSNRPSGVPDRFSGSKSGTSASLAITGLQAEDEADYYCQSYDISLSGSNVFGTGTKVTVLG | 0.072 | 0.074 |  |  | 
8 | mAb 25J3 (antibody, V domains shown) VH: QVQLQESGPGLVRPSETLSLTCNVSGDSINDYYWSWIRQPPGKGLEWIGYIYYSGSTNYNPSLNSRVTISVEMSKNQFSLILNSVTAADTAVYYCARVDYDSGGSFDPWGQGTLVTVS VL: QSVLTQPPSVSGAPGQRVTISCTGSSSNIGAGYDVHWYQQLPGTAPKLLIYGNSNRPSGVPDRFSGSKSGTSASLAITGLQAEDEADFYCQSYDSRLSGYVFGTGTKVTVLG |  |  | 0.068 | 0.067 | 
9 | mAb 3E22 (antibody, V domains shown) VH: EVQLVESGAEVKKPGASVKVSCKASGYTFSRYYIHWVRQAPGQELEWMGWINPDSGDTNYAQKFRGRVTMARDTSISTVYMELNSLRYDDTAVYFCARIIWSSSGMDVWGQGTTVTVS VL: QSALTQPASVSGSPGQSITISCTGTSSDVGSYNLVSWYQQHPGKAPKLMIYEVSKRPSGVSNRFSGSKSGNTASLTISGLQAEDEADYYCHLYVGSSNWVFGGGTKLAVLG |  |  |  |  | binding result [1]: no binding; binding result [12]: no binding; OD [13]: 0.087 OD; OD [14]: 0.086 OD
10 | mAb 4A10 (antibody, V domains shown) VH: EVQLVESGGGLVQPGGSLRLSCAASGFSFSSYWMTWVRQAPGKGLEWVANIKQYGSEKYYVDSVKGRFTISRDNAKNSLYLQMNSLRDDDTAVYYCARMGSYLDTYYYHYGMDVWGQGTTVTVS VL: QSVLTQPPSLSGAPGQRVTISCTGSSSNIGADYDVYWYQHLPGTAPKLLMYGDGYRPSGVPDRFSGSKSGTSASLAITGLQAEDEADYYCQSYDSSLSRRVVFGGGTKLTVLG | 0.069 | 0.073 |  |  | 
11 | mAb 5J8 (antibody, V domains shown) VH: EVQLVESGPGLVKPSDILSLTCAVSGYSISSNYYWGWIRQPPGKGLEWIGSIYHSGSTYYKPSLESRLGISVDTSKNQFSLKLSFVSAADTAVYYCARHVRSGYPDTAYYFDKWGQGTLVTVS VL: SYVLTQPPSVSVAPGETARISCGGNNIGTKVLHWYQQTPGQAPVLVVYDDSDRPSGIPERFSGSNSGNTATLTISRVEVGDEADYYCQVWDISTDQAVFGGGTKLTVLG | 0.076 | 0.083 |  |  | 
12 | mAb 8F8 (antibody, V domains shown) VH: EVQLLESGGGVVQPGRSLRLSCAASGFMFSSYVMHWVRQPPGKGLEWVAVIWYDGSKTYFADSMRGRLTVSRDNSKNALYLQMNRLRAEDTAVYYCARQQDSGYSGPEVSYYSHYGMDVWGQGTTVIVS VL: QSVLTQSPSASGTPGRAITISCSGSSSNIGSNPVNWYQQLPGAAPKLLIYADEHRPSGVPDRFSGPKSGTSASLAISGLQSEDEADYYCAAWDDSLSGPAVVFGGGTKLTVLG |  |  | 0.071 | 0.071 | 
13 | mAb 7A13 (antibody, V domains shown) VH: QVQLQESAPGLVKPSGTLSLTCAVSGASLSSSDWWTWVRQPPGKGLEWIGEIHHGGSTNSNPSLQSRVTISIDKSKKQFSLKLTSVTVADTAVYYCARAPGADAGPYSENIHHWGQGTLVTVS VL: QLVLTQSPSASASLGASVKLTCTLSSRHSDYAIGWHQQQPGKGPRYLMKLNPDGSHTKGDGIPDRFSGSSSGAERYLTISNLLSEDEADYYCQTWGTGIQVFGGGTRLTVIS |  |  | 0.068 | 0.068 | 
